Measured values as given in US20140087995A1 (published 2014).
Numbered stars: 1 amine (or outer) side, 2 acyl side, 3 side chain; on linkers, the order of the positions; unused ones are H or OH. Bridge positions count the residues as written; N and C are the ends. Side chains are listed from the residue outwards. Ends that are not written are not given here. * marks the point of attachment. C20 diacid = O=C(O)CCCCCCCCCCCCCCCCCCC(=O)*; γGlu = O=C(O)[C@H](CCC(=O)[*:2])N[*:1]

T1: human calcitonin receptor (human, UniProt P30988 25-474)
T1 construct: whole, on cells; also called hCTR; hCT
T1 sequence (looked up): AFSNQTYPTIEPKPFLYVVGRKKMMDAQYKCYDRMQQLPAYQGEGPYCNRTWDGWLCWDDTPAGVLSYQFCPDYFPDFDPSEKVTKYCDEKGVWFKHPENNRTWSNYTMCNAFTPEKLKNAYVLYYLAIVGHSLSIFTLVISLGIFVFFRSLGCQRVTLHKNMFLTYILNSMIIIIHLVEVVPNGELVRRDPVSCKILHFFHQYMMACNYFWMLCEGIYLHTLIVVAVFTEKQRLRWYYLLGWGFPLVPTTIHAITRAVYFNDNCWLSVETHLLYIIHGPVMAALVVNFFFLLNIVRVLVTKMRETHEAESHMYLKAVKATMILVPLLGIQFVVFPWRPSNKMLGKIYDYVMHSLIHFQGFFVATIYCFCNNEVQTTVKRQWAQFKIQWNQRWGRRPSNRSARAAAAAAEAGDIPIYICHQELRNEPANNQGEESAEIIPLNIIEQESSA


Columns and labels:
[1] = molecular target: T1, human calcitonin receptor; assay: ratio of IC50 at hCTR to IC50 at the human amylin receptor (reference)
In short: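 Competition binding by SPA uses membrane preparations (35 ng/μL final) in pH 7.4 Hepes buffer with 1 mM CaCl2 and 5 mM MgCl₂. Incubation lasts 120 min at 25° C, and IC₅₀ comes from one-site fitting.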

[2] = molecular target: T1, human calcitonin receptor; assay: SPA competition binding, membranes with human calcitonin receptor, displacement of 125I-calcitonin (Assay VII)
In short: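 BHK hCTR membranes 35 ng/μL + SPA beads 0.05 mg/well; buffer 50 mM Hepes pH 7.4, 1 mM CaCl2, 5 mM MgCl₂, 0.1% OA, 0.02% Tween20. 120 min, 25° C., shaking. Scintillation count; IC50 by one-site binding competition.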

Ratio hCT/hAmylin binding [1] | IC50 [2] | Binder
27.6 | 32.5 nM | K([γGlu-γGlu-C20 diacid])CNTATCATQRLADFLRHSSPNFGAPLSSTNVGSDTY-NH2 (disulfide 2-7; N-terminus assumed; SMILES CC(C)C[C@H](NC(=O)[C@H](CCCNC(=N)N)NC(=O)[C@H](CCC(N)=O)NC(=O)[C@@H](NC(=O)[C@H](C)NC(=O)[C@@H]1CSSC[C@H](NC(=O)[C@@H](N)CCCCNC(=O)CC[C@H](NC(=O)CC[C@H](NC(=O)CCCCCCCCCCCCCCCCCCC(=O)O)C(=O)O)C(=O)O)C(=O)N[C@@H](CC(N)=O)C(=O)N[C@@H]([C@@H](C)O)C(=O)N[C@@H](C)C(=O)N[C@@H]([C@@H](C)O)C(=O)N1)[C@@H](C)O)C(=O)N[C@@H](C)C(=O)N[C@@H](CC(=O)O)C(=O)N[C@@H](Cc1ccccc1)C(=O)N[C@@H](CC(C)C)C(=O)N[C@@H](CCCNC(=N)N)C(=O)N[C@@H](Cc1c[nH]cn1)C(=O)N[C@@H](CO)C(=O)N[C@@H](CO)C(=O)N1CCC[C@H]1C(=O)N[C@@H](CC(N)=O)C(=O)N[C@@H](Cc1ccccc1)C(=O)NCC(=O)N[C@@H](C)C(=O)N1CCC[C@H]1C(=O)N[C@@H](CC(C)C)C(=O)N[C@@H](CO)C(=O)N[C@@H](CO)C(=O)N[C@H](C(=O)N[C@@H](CC(N)=O)C(=O)N[C@H](C(=O)NCC(=O)N[C@@H](CO)C(=O)N[C@@H](CC(=O)O)C(=O)N[C@H](C(=O)N[C@@H](Cc1ccc(O)cc1)C(N)=O)[C@@H](C)O)C(C)C)[C@@H](C)O, also called compound 1)
15.7 | 6.3 nM | {C20 diacid-γGlu}-KCNTATCATQRLAEFLRHSSPNFGAIPSSTNVGKNTY-NH2 (disulfide 2-7; SMILES CC[C@H](C)[C@H](NC(=O)[C@H](C)NC(=O)CNC(=O)[C@H](Cc1ccccc1)NC(=O)[C@H](CC(N)=O)NC(=O)[C@@H]1CCCN1C(=O)[C@H](CO)NC(=O)[C@H](CO)NC(=O)[C@H](Cc1c[nH]cn1)NC(=O)[C@H](CCCNC(=N)N)NC(=O)[C@H](CC(C)C)NC(=O)[C@H](Cc1ccccc1)NC(=O)[C@H](CCC(=O)O)NC(=O)[C@H](C)NC(=O)[C@H](CC(C)C)NC(=O)[C@H](CCCNC(=N)N)NC(=O)[C@H](CCC(N)=O)NC(=O)[C@@H](NC(=O)[C@H](C)NC(=O)[C@@H]1CSSC[C@H](NC(=O)[C@H](CCCCN)NC(=O)CC[C@H](NC(=O)CCCCCCCCCCCCCCCCCCC(=O)O)C(=O)O)C(=O)N[C@@H](CC(N)=O)C(=O)N[C@@H]([C@@H](C)O)C(=O)N[C@@H](C)C(=O)N[C@@H]([C@@H](C)O)C(=O)N1)[C@@H](C)O)C(=O)N1CCC[C@H]1C(=O)N[C@@H](CO)C(=O)N[C@@H](CO)C(=O)N[C@H](C(=O)N[C@@H](CC(N)=O)C(=O)N[C@H](C(=O)NCC(=O)N[C@@H](CCCCN)C(=O)N[C@@H](CC(N)=O)C(=O)N[C@H](C(=O)N[C@@H](Cc1ccc(O)cc1)C(N)=O)[C@@H](C)O)C(C)C)[C@@H](C)O, also called compound 36)
2.5 | 0.353 nM | K([γGlu-C20 diacid])CNTATCATQRLAEFLRHSSPNFGAIPSSTNVGSNTP-NH2 (disulfide 2-7; N-terminus assumed; SMILES CC[C@H](C)[C@H](NC(=O)[C@H](C)NC(=O)CNC(=O)[C@H](Cc1ccccc1)NC(=O)[C@H](CC(N)=O)NC(=O)[C@@H]1CCCN1C(=O)[C@H](CO)NC(=O)[C@H](CO)NC(=O)[C@H](Cc1c[nH]cn1)NC(=O)[C@H](CCCNC(=N)N)NC(=O)[C@H](CC(C)C)NC(=O)[C@H](Cc1ccccc1)NC(=O)[C@H](CCC(=O)O)NC(=O)[C@H](C)NC(=O)[C@H](CC(C)C)NC(=O)[C@H](CCCNC(=N)N)NC(=O)[C@H](CCC(N)=O)NC(=O)[C@@H](NC(=O)[C@H](C)NC(=O)[C@@H]1CSSC[C@H](NC(=O)[C@@H](N)CCCCNC(=O)CC[C@H](NC(=O)CCCCCCCCCCCCCCCCCCC(=O)O)C(=O)O)C(=O)N[C@@H](CC(N)=O)C(=O)N[C@@H]([C@@H](C)O)C(=O)N[C@@H](C)C(=O)N[C@@H]([C@@H](C)O)C(=O)N1)[C@@H](C)O)C(=O)N1CCC[C@H]1C(=O)N[C@@H](CO)C(=O)N[C@@H](CO)C(=O)N[C@H](C(=O)N[C@@H](CC(N)=O)C(=O)N[C@H](C(=O)NCC(=O)N[C@@H](CO)C(=O)N[C@@H](CC(N)=O)C(=O)N[C@H](C(=O)N1CCC[C@H]1C(N)=O)[C@@H](C)O)C(C)C)[C@@H](C)O, also called compound 12)
1.2 | 0.305 nM | K([γGlu-γGlu-C20 diacid])CNTATCATQRLAEFLRHSSPNFGAIPSSTNVGSNTP-NH2 (disulfide 2-7 (inferred), also called compound 13)
17.3 | 19.5 nM | K([γGlu-γGlu-C20 diacid])CNTATCATQRLADFLRHSSNPFGAPLSSTNVGSDTY-NH2 (disulfide 2-7; N-terminus assumed; SMILES CC(C)C[C@H](NC(=O)[C@H](CCCNC(=N)N)NC(=O)[C@H](CCC(N)=O)NC(=O)[C@@H](NC(=O)[C@H](C)NC(=O)[C@@H]1CSSC[C@H](NC(=O)[C@@H](N)CCCCNC(=O)CC[C@H](NC(=O)CC[C@H](NC(=O)CCCCCCCCCCCCCCCCCCC(=O)O)C(=O)O)C(=O)O)C(=O)N[C@@H](CC(N)=O)C(=O)N[C@@H]([C@@H](C)O)C(=O)N[C@@H](C)C(=O)N[C@@H]([C@@H](C)O)C(=O)N1)[C@@H](C)O)C(=O)N[C@@H](C)C(=O)N[C@@H](CC(=O)O)C(=O)N[C@@H](Cc1ccccc1)C(=O)N[C@@H](CC(C)C)C(=O)N[C@@H](CCCNC(=N)N)C(=O)N[C@@H](Cc1c[nH]cn1)C(=O)N[C@@H](CO)C(=O)N[C@@H](CO)C(=O)N[C@@H](CC(N)=O)C(=O)N1CCC[C@H]1C(=O)N[C@@H](Cc1ccccc1)C(=O)NCC(=O)N[C@@H](C)C(=O)N1CCC[C@H]1C(=O)N[C@@H](CC(C)C)C(=O)N[C@@H](CO)C(=O)N[C@@H](CO)C(=O)N[C@H](C(=O)N[C@@H](CC(N)=O)C(=O)N[C@H](C(=O)NCC(=O)N[C@@H](CO)C(=O)N[C@@H](CC(=O)O)C(=O)N[C@H](C(=O)N[C@@H](Cc1ccc(O)cc1)C(N)=O)[C@@H](C)O)C(C)C)[C@@H](C)O, also called compound 3)
36.7 | 20.4 nM | KCNTATCATQRLAEFLRHSSPNFGAIPSSTNVGSNTY (C20 diacid-gGlu-2xOEG on the alpha amino group of the N-terminal residue; disulfide bridge Cys2-Cys7; C-terminal amide, also called compound 19)
26 | 15.5 nM | {C20 diacid-γGlu-γGlu}-KCNTATCATQRLAEFLRHSSPNFGAIPSSTNVGSNTY-NH2 (disulfide 2-7; SMILES CC[C@H](C)[C@H](NC(=O)[C@H](C)NC(=O)CNC(=O)[C@H](Cc1ccccc1)NC(=O)[C@H](CC(N)=O)NC(=O)[C@@H]1CCCN1C(=O)[C@H](CO)NC(=O)[C@H](CO)NC(=O)[C@H](Cc1c[nH]cn1)NC(=O)[C@H](CCCNC(=N)N)NC(=O)[C@H](CC(C)C)NC(=O)[C@H](Cc1ccccc1)NC(=O)[C@H](CCC(=O)O)NC(=O)[C@H](C)NC(=O)[C@H](CC(C)C)NC(=O)[C@H](CCCNC(=N)N)NC(=O)[C@H](CCC(N)=O)NC(=O)[C@@H](NC(=O)[C@H](C)NC(=O)[C@@H]1CSSC[C@H](NC(=O)[C@H](CCCCN)NC(=O)CC[C@H](NC(=O)CC[C@H](NC(=O)CCCCCCCCCCCCCCCCCCC(=O)O)C(=O)O)C(=O)O)C(=O)N[C@@H](CC(N)=O)C(=O)N[C@@H]([C@@H](C)O)C(=O)N[C@@H](C)C(=O)N[C@@H]([C@@H](C)O)C(=O)N1)[C@@H](C)O)C(=O)N1CCC[C@H]1C(=O)N[C@@H](CO)C(=O)N[C@@H](CO)C(=O)N[C@H](C(=O)N[C@@H](CC(N)=O)C(=O)N[C@H](C(=O)NCC(=O)N[C@@H](CO)C(=O)N[C@@H](CC(N)=O)C(=O)N[C@H](C(=O)N[C@@H](Cc1ccc(O)cc1)C(N)=O)[C@@H](C)O)C(C)C)[C@@H](C)O, also called compound 15)
